Molecular target: IL-10Rα receptor on MC/9 mouse mast cells (mouse) (UniProt Q61727)
Assay: cell-based or functional assay

Chain of UniProt Q61727 (Q61727 17-575): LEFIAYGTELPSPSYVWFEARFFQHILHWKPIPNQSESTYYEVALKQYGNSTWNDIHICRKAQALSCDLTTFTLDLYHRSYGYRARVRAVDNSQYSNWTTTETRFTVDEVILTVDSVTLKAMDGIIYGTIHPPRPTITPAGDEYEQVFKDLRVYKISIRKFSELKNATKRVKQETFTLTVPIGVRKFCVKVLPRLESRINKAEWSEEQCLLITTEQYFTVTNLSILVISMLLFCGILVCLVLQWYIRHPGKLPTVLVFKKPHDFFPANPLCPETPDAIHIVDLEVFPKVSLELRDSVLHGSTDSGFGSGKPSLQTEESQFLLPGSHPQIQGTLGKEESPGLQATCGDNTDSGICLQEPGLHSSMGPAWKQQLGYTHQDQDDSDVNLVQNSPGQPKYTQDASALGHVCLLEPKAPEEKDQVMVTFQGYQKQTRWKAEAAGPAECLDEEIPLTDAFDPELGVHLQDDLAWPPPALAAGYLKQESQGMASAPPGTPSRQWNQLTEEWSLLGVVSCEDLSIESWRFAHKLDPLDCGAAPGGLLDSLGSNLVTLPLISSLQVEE

## recombinant human IL-10 (Peprotech catalog number 200-10) (from UniProt P22301 19-178) (ligand)
  half maximal effective concentration (EC50), proliferation of MC/9 cells in the presence of IL4 (Alamar Blue): 91.7 pM
